Measured values reported in the DeepSol protein solubility set.

Experiment: soluble on expression in E. coli; label from the status in PepcDB or PDB records

Row | Sequence | soluble on expression in E. coli
1 | MEEPSELGASKEKPIELNEDDESSDGENSVIILDSDTEPEDGAGGEEDEDNGEDSEEEDEEDSDEEESEDDSDSSVDTESVNSVWSNVDEENGEEITTEAAEAKIIKKFEKAIFSIADNDSETGRRILEKLLNDAIIATYNQENPDFELLDEPPRLAKMLQVFIASHRNLAKLCEKEVENADEKEKEQLKSEEIQHLCQVLAYEPNSSDIWLDVALKSIEFGDLNFSKYAFKRCETLKESLESHATLLYLTCDYNESLMIMKQFQEQNDVLNDKLKYLKHKIRSTNQYYKLSCDRIFEEDEVYADVQSVEKRKIQDFDERIEALRSRVVGKIEQRDVDFRDEEEKCSVIPIRIEADQE | not soluble
2 | MAKYFGTDGIRGEVANSTITVEFTQKLGNAVGSLINQKNYPKFVIVGQDTRSSGGFLKFALVSGLNAAGIDVLDLGVVPTPVVAFMTVKHRAAAGFVITASHNKFTDNGIKLFSSNGFKLDDALEEEVEDMIDGDFIYQPQFKFGSYKILANAIDEYIESIYSRFAKFVNYKGKVVVDCAHGAASHNFEALLDKFGINYVSIASNPDGLNINVGCGATCVSNIKKAVKEQKADLGISLDGDADRIIIVDENGQEIDGDGILNILAQYSDICGGTNGIVGTQMTNMSYENHYRANKIPFIRSKVGDRYVLEDLVKYGYKIGGESSGHVINLNFGTTGDGLFTAIQLLAIFSQADKPVSEFKLQGELMQQTLINVPLTKKVAREDLQKVASDVNDVEKRLGNRGRVLLRPSGTEPVLRVMVEADDKSLATNEAEYLVEKVKQKLV | soluble
3 | MGHDIDQVAPLLREPANFQLRTNCDPHEDNFGLRAHGPLVRIVGESSTQLGRDFVWQAHGYEVVRRILGDHEHFTTRPQFTQSKSGAHVEAQFVGQISTYDPPEHTRLRKMLTPEFTVRRIRRMEPAIQSLIDDRLDLLEAEGPSADLQGLFADPVGAHALCELLGIPRDDQREFVRRIRRNADLSRGLKARAADSAAFNRYLDNLLARQRADPDDGLLGMIVRDHGDNVTDEELKGLCTALILGGVETVAGMIGFGVLALLDNPGQIELLFESPEKAERVVNELVRYLSPVQAPNPRLAIKDVVIDGQLIKAGDYVLCSILMANRDEALTPDPDVLDANRAAVSDVGFGHGIHYCVGAALARSMLRMAYQTLWRRFPGLRLAVPIEEVKYRSAFVDCPDQVPVTW | soluble
4 | MGSDKIHHHHHHMSIKSDKWIRRMSEEFGMIDPFEPNQIKEADGQRIISYGTSSYGYDIRCANEFKIFTNINSTIVDPKNFDPKNFVTVEDDCCIIPPNSFALARTVEYFRIPRNVLTVCLGKSTYARCGIIVNVTPFEPEWEGYVTLEFSNTTPLPAKIYAGEGVAQVLFFESDEVCETSYKDRNGKYMGQTGVTLPKA | not soluble
5 | MVVDTEYYDLLGVSTTASSIEIKKAYRKKSIQEHPDKNPNDPTATERFQAISEAYQVLGDDDLRAKYDKYGRKEAIPQGGFEDAAEQFSVIFGGDAFASYIGELMLLKNLQKTEELNAEDEAEKEKENVETMEESPADGKTNGTTNAVDAALGNTNEKDDKNKARTTSGNLTVHDGNKKNEQVGAEAKKKKTKLEQFEEEQEVEKQKRVDQLSKTLIERLSILTESVYDDACKDSFKKKFEEEANLLKMESFGLDILHTIGDVYYEKAEIFLASQNLFGMGGIFHSMKAKGGVFMDTLRTVSAAIDAQNTMKELEKMKEASTNNGPLFDKDGNEQIKPTTEELAQQEQLLMGKVLSAAWHGSKYEITSTLRGVCKKVLEDDSVSKKTLIRRAEAMKLLGEVFKKTFRTKVEQEEAQIFEELVAEATKKKRHT | not soluble
6 | MGKIKIGINGFGRIGRLVARVALQSEDVELVAVNDPFITTDYMTYMFKYDTVHGQWKHSDIKIKDSKTLLLGEKPVTVFGIRNPDEIPWAEAGAEYVVESTGVFTDKEKAAAHLKGGAKKVVISAPSKDAPMFVCGVNEDKYTSDIDIVSNASCTTNCLAPLAKVIHDNFGIIEGLMTTVHAITATQKTVDGPSSKDWRGGRAASFNIIPSSTGAAKAVGKVLPDLNGKLTGMSFRVPTVDVSVVDLTVRIEKAASYDAIKSAIKSASEGKLKGIIGYVEEDLVSTDFVGDSRSSIFDAKAGIALNDNFVKLVAWYDNEWGYSNRVIDLIRHMAKTQ | soluble
7 | MGSDKIHHHHHHMSYKVINVITAIDYIEEHLSEKLDLDIVANAVHYSKYHLHRTFTTSVGLTMHDYIKRRKLTEAAKLLVFSKKPIIEIALIAGYESQQAFTSIFKAMYKKSPNKYRKEQEFYPLQLRFVLKKDNLFLKNVLELEKEIKLASMSDIPLWMNLVRLVIDGFPNLQEEEYIYQLEQYILEERALILKLNNVAIANMVFNRETRSIDFFGIHPQYRNSDIAQVFLKKVIEDFLIDTDISITTFREGDKADTGHRDMIKKLGFAEAELLVEFGYPTQKFILPLS | not soluble
8 | MPAALLISGPCKICDLPAHGNHFGVLSCRACAAFFRRASRSPRFQDKACEYGDCRIFDAGAYRCKICRLKKCYKVGMDASKFQKDRDLISSSNAYLKRTKVYAPQSLANFLGRPEFIISFEPEKASPFKTVIDVTDLVHKAAEIFQEVKVIFWHKPTLHGPIDVFFASNFAVL | soluble
9 | MDVLEISKKILHEGPVCDHCMGRQFAKLSTGLSNRERGQAVKLALALEGDRIYKSENDDSLLKELAPCSALARKTLRIEGENEQCWVCLDQFKKLDFWAEEAAKALEGLEYSTFLVGTKVSGLLSENEEILWAEAGTAYAEQLKTELNREVGKRIAERVNKEVDFENPDIVITLDLATNKFELQVRSVYIYGRYLKKVRGIPQTRWPCRKCRGKGCEKCGFTGKQYPESVDELIKGPVVEAFEAVDTAFHGSGREDIDALMLGSGRPFVVEAKSPVKRSADLEALAAKINENAAGKVEVRDLRFVEKGMIETLKSSKADKTYKLKVTFKEPVSEEKLKSCLESLNGTEIAQQTPKRVVHRRADLIRKRYVHSITLNELTDDGYAYITVNCEGGLYVKELISGDEGRTNPSLTGLLGIPALVEDLDVVNVEILEHHHHHH | soluble
10 | MSLELFKSVKLDKNSGTPLYMQLSDKIAEMIENGILPADLKLPSIRQMSALLNVNSVTIVSCYKHLETKGYVYSRPGSGTYVAVVLPKQSENYSDRNIILDELYQSDDLNLINNGHIKINENTINFASATPKSSLFPVENFKLVLNEVLDRDRGNAFDYQDSQGYYPLRSSVRILLEKRKIACHEENIQIISGAQQGIDIIAKALLRQGDYVITESPTYTGAIAVFKSRGAEIADVPLSCDGPNLNILEYNLKKYKPKLIYTIPSFQNPTGISYSNEKRKEILALAERYDAYIIEDDYVSGLDFENMGFATVKSMDKSDRVIFLKSFSKIFMPGLRLGFMVVPSSLKSYIIEAKHATDISTSGLIQRAFDLYIRKGMWDGHFKLMFNIYKERYYKTIEALERHLPQNVQFHKPGGGLNIWLELPANCFTGSLLKAASAENIVFAPGRIFYSSTPTNLNNIRLSFAAVDADEIERGIEKLSELILRFDRNKSEGHHHHHH | soluble
11 | MSLRPLAIIGPTGAGKSQLALDVAARLGARVSVEIVNADAMQLYRGMDIGTAKLPVSERRGIPHHQLDVLDVTETATVARYQRAAAADIEAIAARGAVPVVVGGSMLYVQSLLDDWSFPATDPSVRARWERRLAEVGVDRLHAELARRDPAAAAAILPTDARRTVRALEVVELTGQPFAASAPRIGAPRWDTVIVGLDCQTTILDERLARRTDLMFDQGLVEEVRTLLRNGLREGVTASRALGYAQVIAALDAGAGADMMRAAREQTYLGTRRYVRRQRSWFRRDHRVHWLDAGVASSPDRARLVDDAVRLWRHVTEGHHHHHH | soluble
12 | MGSDKIHHHHHHMNIIKFFNQTIDYIETTLEDKIDEKKIVQLSGYSYPMFSRIFSILTAYSLSEYIRLRRLTKAAFDLRKNEEKVIDIAFKYQYESPDSFSLAFKKYHNCTPMEVKQGKDFKIFSPIHLSLTIKGGKAMEISIKKKEKFIVGGIKAENIETFQCPKVWEELFKKVSFNDLEKLGNGNSYGVCYETTSSKSINYIAAFDVKNVSEAKKLGLDTMEIPEAEYAVVKLKGKIPNCIHEGWKYVMEVFFPEHGYKHAGTPDFELYSEGDMGSDNYEMELWVPIIKAE | not soluble
13 | MGSDKIHHHHHHMKALAIAATGMNAQQTNLEVIANNIANINTTGYKRARAEFSDLLYQVDRTQGVPNRSNASLVPEGVSIGLGVKTTAVRNVHTQGELTSTGNSFDMALTGRGWFQIEGADGGTLYTRAGAFNTNATGQLVTVDGANVIPAITVPTDAVEVIVNKTGQVFARIDGQTNLQTLGQLQIVNFANEAGLAPLGDNLFQETTASGPANAGVPGDPGFATIQQGYLEASNVDPVKEITELISAQRAYEMNSKVIQAADDMASVVSKNIR | not soluble
14 | MEYGDRHITVVDEHGNEQLCEILFTFESDDFGKSYVFYYPVGVEAEDENGETEVHVSAFIPGDENKEGELLPIETEEEWDMIEEVWNTFCAEQEEEDDE | not soluble
15 | MSLKVKAINLYTYKEPFKSPISTPKVKLTHRESLFTEIVTYSGETYYGECNAFLTNWYDKETILTVVNRLRQWIPQVLHKDMTSFDSWLPYLNQMNDAPAARSMVVMAVYQMYNDLHDFEVQYGATVSGLTNSQIETLLETRPKRIKLKWSTSLIKDLETIRLLNFDCDIAIDANESLTKPSFLQLANVNTSDIIYIEEPFKILEDLNDIDMSIFPRIAIDEKALSIEKIQSIIQQYPIQVVVLKPFRLGGIDRMLNAMKILKEKNIRFVVGGMYEFGLSRYFTAMLAKEGSYPGDITPHGYYFSNDIVETSGILKGGMIYFTPPKVKRSLLNKVEGHHHHHH | not soluble
16 | MAHHHHHHMNWCLSRRWRFRLELLSASLLSRVHIGCHAEPRNNMSTTPAKNELASVHESIQITLSKIQEDSAKRSSQEQQLISSVASAKCLAGIFSAHSPTNDEVVRALKSAGEEEQVEAECLQRYQQFVEAKKRCFTSVEADLRSVSKVLSGVLAASEKVEEPTSGDCRAEVQENQCDGELLHLLRLWRTVVCLHDLVLGSLIKRGSDGSPCELQRFSAGEERSYVRESALRNTVADTEKMLLAIRKRWRDLTEEAEAVRATAESMTPLPFSDEATLLIADEKDEPLVASINQGLHELQQSSDRLRKKKVAVDEGAAALLEKVRNLSLQTAACRCSVEAFSQRSREAADDANSLMSAKARALQELHRKAQECASEQGLLDRDVGSYKQLCALLVEWAENEKSEAERIVAAEQEYHSLVSKERAQQEKLRCLRLSIKNLESEVRDASTEKQRIVGEVQYLSKLVSNPTVVTQVLARASEECHPEREVTALHNYLRFVQKARLERHTSHE | not soluble
17 | GPGSMDEFVYNRCSLNPIHWVLMLKGCLVDLFFSVRPINFSYSRVGMTNLAGERDQAACLREIRRAVRIIEGRKRTVATGTNKDSFQDMDSRCHTPERPLRLHLVLFGFSRGATTTFYTAMKLPPELATYVSLVVVEAAFDTLHNVIESSCWFPSFVLWFFRTFCDYSGEDAYKYDRNQIHLRCPIAFVMSVKDTRVPNELTQRLIDNVKADCPQIPAVEVLQLKHSRHPLMAVGNREDQDAYVAFMEGLYDRYCN | not soluble
18 | MSLIDLKQYEFWFLVGSQYLYGLETLKKVEQQASKIVDSLNDDPIFPSKIVLKPVLKSSSEITEIFEKANADPKCAGVIVWMHTFSPSKMWIRGLSINKKPLLHLHTQYNREIPWDTIDMDYMNLNQSAHGDREHGFIHARMRLPRKVVVGHWEEKEVREKIAKWMRVACAIQDGRMGQIVRFGDNMREVASTEGDKVEAQIKLGWSINTWGVGELAERVKAVPEREVEELLKEYREKYIMPEDEYSLKAIREQAKIEIALREFLKEKNAVGFTTTFEDLHDLPQLPGLAVQRLMEEGYGFGAEGDWKAAGLVRAIKVMGTSLPGGTSFMEDYTYHLTPGNELVLGAHMLEVCPTIAKEKPRIEVHPLSIGGKADPARLVFDGQEGPAVNASIVDMGNRFRLVVNKVLSVPIERKMPKLPTARVLWKPLPDFKRATTAWILAGGSHHTAFSTAIDVEYLIDWAEALEIEYVVIDENLDLEDFKKELRWNELYWGLLKREGHHHHHH | soluble
